Results: the supplement of paper PMC12783771
± gives the standard deviation of the averaged measurements.

B1: library; numbered along this chain (parent)
chain: MNIQIGELAKRTACPVVTIRFYEQEGLLPPPGRSRGNFRLYGEEHVERLQFIRHCRSLDMPLSDVRTLLSYRKRPDQDCGEVNMLLDEHIRQVESRIGALLELKHHLVELREACSGARPAQSCGILQGLSDCVCDTRGTTAHPSD

Tests used:
[1] = variants of: B1; assay: sfGFP reporter fluorescence (15 h) (µM FITC); higher = higher leak; conditions: library round: Round 0; ligand: none
In short: (§1)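 PCR-made linear PbrR templates (Echo-normalized to 5 nM) were expressed in BL21 Star (DE3) extract (PANOx-SP) with pPbrR-sfGFP reporter plasmid and 30 μg/mL GamS. Reactions were 1 μL, Echo-assembled, with 1 µM lead chloride, 30 µM zinc acetate or no metal, incubated 15 hr at 30 °C. Endpoint sfGFP fluorescence (485/528 nm, Synergy Neo2) was converted to µM FITC via standard curves in 50 mM sodium borate pH 8.5. Up to three biological replicates.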

[2] = variants of: B1; assay: sfGFP reporter fluorescence (15 h) (µM FITC); higher = stronger transcriptional activation; conditions: library round: Round 0
In short: as §1

Row | Variant | sfGFP reporter fluorescence [1] | sfGFP reporter fluorescence ([2]; ligand: 1 µM Pb) | sfGFP reporter fluorescence ([2]; ligand: 30 µM Zn)
1 | MNIQIGELAKRTACPVVTIRFYEQEGLLPPPGRSRGNFRLTGEEHVERLQFIRHCRSLDMPLSDVRTLLSYRKRPDQDCGEVNMLLDEHIRQVESRIGALLELKHHLVELREACSGARPAQSCGILQGLSDCVCDTRGTTAHPSD [Y41T] | 0.0597 ± 0.0026 | 0.05974 ± 0.00052 | 0.0592 ± 0.0039
2 | MNIQIGELAKRTACPVVTIRFYEQEGLLPPPGRSRGNFRLVGEEHVERLQFIRHCRSLDMPLSDVRTLLSYRKRPDQDCGEVNMLLDEHIRQVESRIGALLELKHHLVELREACSGARPAQSCGILQGLSDCVCDTRGTTAHPSD [Y41V] | 0.059 ± 0.001 | 0.05974 ± 0.00052 | 0.0687 ± 0.0013
3 | MNIQIGELAKRTACPVVTIRFYEQEGLLPPPGRSRGNFRLWGEEHVERLQFIRHCRSLDMPLSDVRTLLSYRKRPDQDCGEVNMLLDEHIRQVESRIGALLELKHHLVELREACSGARPAQSCGILQGLSDCVCDTRGTTAHPSD [Y41W] | 0.0586 | 0.0658 ± 0.0029 | 0.1977 ± 0.00078
4 | MNIQIGELAKRTACPVVTIRFYEQEGLLPPPGRSRGNFRLYAEEHVERLQFIRHCRSLDMPLSDVRTLLSYRKRPDQDCGEVNMLLDEHIRQVESRIGALLELKHHLVELREACSGARPAQSCGILQGLSDCVCDTRGTTAHPSD [G42A] | 0.06212 ± 0.00026 | 0.0737 ± 0.0021 | 0.482 ± 0.034
5 | MNIQIGELAKRTACPVVTIRFYEQEGLLPPPGRSRGNFRLYGAEHVERLQFIRHCRSLDMPLSDVRTLLSYRKRPDQDCGEVNMLLDEHIRQVESRIGALLELKHHLVELREACSGARPAQSCGILQGLSDCVCDTRGTTAHPSD [E43A] | 0.06304 ± 0.00052 | 0.0969 ± 0.0044 | 1.66 ± 0.077
6 | MNIQIGELAKRTACPVVTIRFYEQEGLLPPPGRSRGNFRLYGCEHVERLQFIRHCRSLDMPLSDVRTLLSYRKRPDQDCGEVNMLLDEHIRQVESRIGALLELKHHLVELREACSGARPAQSCGILQGLSDCVCDTRGTTAHPSD [E43C] | 0.06066 ± 0.00026 | 0.0887 ± 0.0042 | 0.481 ± 0.018
7 | MNIQIGELAKRTACPVVTIRFYEQEGLLPPPGRSRGNFRLYGDEHVERLQFIRHCRSLDMPLSDVRTLLSYRKRPDQDCGEVNMLLDEHIRQVESRIGALLELKHHLVELREACSGARPAQSCGILQGLSDCVCDTRGTTAHPSD [E43D] | 0.05754 ± 0.00052 | 0.072 ± 0.012 | 0.744 ± 0.036
